Changes are numbered by the printed parent chain. Names may count otherwise. Values belong to the molecule of their own block, whether it stands above or below them.
Experiments:
[1] = target: LRP6 second propeller domain (Homo sapiens) (UniProt O75581); settings: cited from earlier work
[2] = target: LRP6 first propeller domain (Homo sapiens) (UniProt O75581); settings: cited from earlier work
[3] = target: LRP6 E1E2 (Homo sapiens) (UniProt O75581); settings: cited from earlier work
[4] = target: LRP6 E3E4 (Homo sapiens) (UniProt O75581); settings: cited from earlier work
[5] = target: human LRP6 (human, UniProt O75581 20-1613); experiment: cell-based or functional assay
[6] = target: T1, human LRP6 protein fragment comprising propeller domains E1 and E2 (LRP6E1E2) (human, UniProt O75581 20-630); experiment: cell-based or functional assay
T1 sequence (looked up): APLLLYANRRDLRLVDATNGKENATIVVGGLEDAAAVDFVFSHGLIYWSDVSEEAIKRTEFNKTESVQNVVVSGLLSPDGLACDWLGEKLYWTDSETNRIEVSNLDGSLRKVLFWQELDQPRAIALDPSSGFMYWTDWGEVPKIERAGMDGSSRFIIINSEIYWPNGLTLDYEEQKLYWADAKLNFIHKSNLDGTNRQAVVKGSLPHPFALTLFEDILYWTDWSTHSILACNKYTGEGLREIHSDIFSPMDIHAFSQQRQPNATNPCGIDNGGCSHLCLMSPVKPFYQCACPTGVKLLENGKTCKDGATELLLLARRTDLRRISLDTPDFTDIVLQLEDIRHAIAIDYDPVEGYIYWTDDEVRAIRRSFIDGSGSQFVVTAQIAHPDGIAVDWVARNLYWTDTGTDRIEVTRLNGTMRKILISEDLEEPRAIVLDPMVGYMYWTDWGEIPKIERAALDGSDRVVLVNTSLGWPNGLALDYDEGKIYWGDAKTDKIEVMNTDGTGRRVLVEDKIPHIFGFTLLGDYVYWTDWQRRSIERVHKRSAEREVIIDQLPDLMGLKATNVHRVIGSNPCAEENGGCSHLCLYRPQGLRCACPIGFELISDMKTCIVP

Chain of LRP6 E3E4 (Homo sapiens) (O75581 631-1246): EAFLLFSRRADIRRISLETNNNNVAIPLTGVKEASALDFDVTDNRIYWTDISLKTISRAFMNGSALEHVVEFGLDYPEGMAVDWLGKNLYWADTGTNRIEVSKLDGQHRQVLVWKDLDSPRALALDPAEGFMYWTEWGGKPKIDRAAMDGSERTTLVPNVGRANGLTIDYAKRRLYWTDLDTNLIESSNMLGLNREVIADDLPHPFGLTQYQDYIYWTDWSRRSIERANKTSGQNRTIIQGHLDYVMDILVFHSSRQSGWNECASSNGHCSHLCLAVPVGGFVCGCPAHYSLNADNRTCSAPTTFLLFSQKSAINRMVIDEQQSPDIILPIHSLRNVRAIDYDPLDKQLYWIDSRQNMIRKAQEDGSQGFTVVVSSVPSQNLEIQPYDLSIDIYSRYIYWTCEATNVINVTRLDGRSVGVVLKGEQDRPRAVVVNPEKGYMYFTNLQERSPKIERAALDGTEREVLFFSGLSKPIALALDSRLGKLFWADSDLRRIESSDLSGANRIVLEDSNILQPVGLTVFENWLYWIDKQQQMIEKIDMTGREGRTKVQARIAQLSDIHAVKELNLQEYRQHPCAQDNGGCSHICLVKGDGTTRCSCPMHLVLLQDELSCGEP

Molecule: Sclerostin (from UniProt Q9BQB4)
Kd [1]: 1.3 µM | Kd [2]: 0.06 µM

Molecule: Dkk1 (from UniProt O94907)
Kd [3]: 0.06 µM | Kd [4]: 0.06 µM

IC50 of inhibition of Wnt1-driven SuperTOPFlash luciferase reporter, HEK-293TSA M50 cells transfected with mWnt1 [5]: 0.806 µM | IC50 of inhibition of Wnt3a-driven SuperTOPFlash luciferase reporter, HEK-293TSA M50 cells with 1.5 nM mWnt3a [5]: 0.655 µM
B1: Sclerostin ΔLoop (natural protein, murine, UniProt Q99P68 24-211, looked up)
chain: QGWQAFRNDATEVIPGLGEYPEPPPENNQTMNRAENGGRPPHHPYDAKDVSEYSCRELHYTRFLTDGPCRSAKPVTELVCSGQCGPARLGSGPDFRCIPDRYRAQRVQLLCPGGAAPRSRKVRLVASCKCKRLTRFHNQSELKDFGPETARPQKGRKPRPGARGAKANQAELENAY
modifications: 125I-iodinated (Chloramine T) where used as radioligand; biotinylated (EZ-Link Sulfo-NHS-LC-Biotin, molar ratio 1:1.5) in the pull-down

IC50 of inhibition of Wnt1-driven SuperTOPFlash luciferase reporter, HEK-293TSA M50 cells transfected with mWnt1 [5]: 0.01 µM
B2: wildtype full-length murine Sclerostin (natural protein, UniProt Q99P68 24-211, looked up)
chain: QGWQAFRNDATEVIPGLGEYPEPPPENNQTMNRAENGGRPPHHPYDAKDVSEYSCRELHYTRFLTDGPCRSAKPVTELVCSGQCGPARLLPNAIGRVKWWRPNGPDFRCIPDRYRAQRVQLLCPGGAAPRSRKVRLVASCKCKRLTRFHNQSELKDFGPETARPQKGRKPRPGARGAKANQAELENAY
modifications: 125I-iodinated (Chloramine T) where used as radioligand; biotinylated (EZ-Link Sulfo-NHS-LC-Biotin, molar ratio 1:1.5) in the pull-down

fold decrease against wildtype of the efficiency to inhibit Wnt1-driven SuperTOPFlash luciferase reporter (supernatants of HEK Freestyle cells expressing the variant) [6]: 10 fold
B3: Sclerostin C84AC142R (natural protein, murine, UniProt Q99P68 24-211, looked up)
chain: B2 chain with C84A, C142R
modifications: biotinylated (EZ-Link Sulfo-NHS-LC-Biotin, molar ratio 1:1.5) in the pull-down

IC50 of inhibition of Wnt1-driven SuperTOPFlash luciferase reporter, HEK-293TSA M50 cells transfected with mWnt1 [5]: 0.0269 µM
B4: Sclerostin I94A (natural protein, murine, UniProt Q99P68 24-211, looked up)
chain: B2 chain with I94A

IC50 of inhibition of Wnt1-driven SuperTOPFlash luciferase reporter, HEK-293TSA M50 cells transfected with mWnt1 [5]: 0.196 µM
B5: Sclerostin N92A (natural protein, murine, UniProt Q99P68 24-211, looked up)
chain: B2 chain with N92A

IC50 of inhibition of Wnt1-driven SuperTOPFlash luciferase reporter, HEK-293TSA M50 cells transfected with mWnt1 [5]: 0.831 µM | IC50 of inhibition of Wnt3a-driven SuperTOPFlash luciferase reporter, HEK-293TSA M50 cells with 1.5 nM mWnt3a [5]: 1.11 µM
B6: Sclerostin Alaloop (natural protein, murine, UniProt Q99P68 24-211, looked up)
chain: B2 chain with L90S, N92G, I94S, R96A, V97R, K98S, W99G, W100S, R101A, N103A
modifications: 125I-iodinated (Chloramine T) where used as radioligand
